The values that follow come from patent US20040050316A1 (published 2004).

The data set concerns the molecule itself. The data set is described as follows: X-ray crystal structure (self-association of subunits). The text has this: Native data, to 2.2 Å resolution, were collected at station 9.6 of the S.R.S. Daresbury, from crystals frozen at liquid nitrogen temperatures in a cryo-protecting solution comprising of mother liquor plus 20% glycerol. The structure was solved by multiple isomorphous replacement with anomalous scattering using three heavy atom derivatives. Table 1 details data collection and heavy atom statistics; the HKL package (Otwinowski, Z & Minor, W (1997) Methods Enzymol 276, 307-326), and the CCP4 (Acta Crystallogr D 50 (1994) 760-763) software suite were used for data processing and analysis. Heavy atom positions were derived from difference Patterson and difference Fourier calculations. The SHARP program (Fortelle E. d. -L. & Bricogne, G. (1997) Methods Enzymol 276, 472-494) was used to refine the heavy atom parameters and obtain initial phases, further heavy atom sites were identified from the residual map analysis available in SHARP. […]
The initial model of AMPDA was traced using the QUANTA package (Molecular Simulations Inc) and refined using all data to 2.2 Å with X-PLOR (Briinger, A. T. (1993) X-PLOR Version 3.1 A system for X-ray crystallography and NMR, Yale University Press, New Haven, Conn.). […] The current model has a Rcryst=21.2% and a Rfree=25.4%, calculated on 5% of the data set (Branger, A. T. (1992) Nature 355, 472-475).

B1: rabbit AMP deaminase (AMPDA) catalytic domain, starting at Leu96 (enzyme)
chain: LSHIDEYISLSPTYQTVPDFQRVQITGDYASGVTVEDFEIVCKGLYRALCIREKYMLKSFQRFPKTPSKYLRSIEGTAWKANESSYPVFTPALKKGEDPFRTDNLPENLGYHLKMKDGVVYIYANEAAAGKDEPKPLLYPNMEEFLDDMNFLLALIAQGPVKTYTHRRLKFLSSKFQVHQMLNEMDELKELKNNPHRDFYNCRKVDTHIHAAACMNQKHLLRFIKKSYQVDADRVVYSTKEKNLTLKQLFDKLKLHPYDLTVDSLDVHAGRQTFQRFDKFNDKYNPVGASELRDLYLKTDNYINGEYFATIIKEVGADLVDAKYQHAEPRLSIYGRSPDEWSKLSSWFVRNRIYSSNMTWMIQVPRIYDVFRSKNFLPHFGKMLENVFMPVFEATINPQAHPELSVFLKHITGFDSVDDESKHSGHMFSSKSPKPQEWTLEKNPSYTYYAYYMYANIMVLNSLRKERGMNTFLFRPHCGEVGALTHLMTAFMTADNISHGLNLKKSPVLQYLFFLAQIPIAMSPLSNNSLFLEYAKNPFLDFLQKGLMISLSTDDPMQFHFTKEPLMEEYAIAAQVFKLSTCDMCEVARNSVLQCGISHEEKAKFLGNNYLEEGPIGNDIRKTNVAQIRMAYRYETWCYELNLIAEGLKSTE
notes: Purified from rabbit skeletal muscle; also called rabbit AMPDA; truncated enzyme
Take B1: the binding result is on record as “binds”.
